Measurements as given in patent US20170306346.

What was measured:
His-AtUBC31 = target: T1, His-AtUBC31
T1 sequence (Q9C8X7 1-154, looked up): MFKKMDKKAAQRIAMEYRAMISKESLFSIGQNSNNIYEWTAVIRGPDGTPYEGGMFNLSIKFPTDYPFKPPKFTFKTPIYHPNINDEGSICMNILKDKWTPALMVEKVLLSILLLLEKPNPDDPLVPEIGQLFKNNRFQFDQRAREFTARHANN

His-AtUBC2, P42745 = target: T2, His-AtUBC2, P42745
T2 chain: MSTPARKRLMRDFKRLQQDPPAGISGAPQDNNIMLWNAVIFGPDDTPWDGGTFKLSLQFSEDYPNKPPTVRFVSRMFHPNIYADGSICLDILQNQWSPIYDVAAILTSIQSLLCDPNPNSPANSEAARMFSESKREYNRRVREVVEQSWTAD

His-AtUBC36, Q9FZ48 = target: T3, His-AtUBC36, Q9FZ48
T3 chain: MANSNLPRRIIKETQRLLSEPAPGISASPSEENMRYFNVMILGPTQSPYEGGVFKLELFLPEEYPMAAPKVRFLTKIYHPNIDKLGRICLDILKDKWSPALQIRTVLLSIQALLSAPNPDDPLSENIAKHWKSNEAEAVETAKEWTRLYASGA

GST-MYC2-HA, Q39204, sequence (Q39204 whole entry): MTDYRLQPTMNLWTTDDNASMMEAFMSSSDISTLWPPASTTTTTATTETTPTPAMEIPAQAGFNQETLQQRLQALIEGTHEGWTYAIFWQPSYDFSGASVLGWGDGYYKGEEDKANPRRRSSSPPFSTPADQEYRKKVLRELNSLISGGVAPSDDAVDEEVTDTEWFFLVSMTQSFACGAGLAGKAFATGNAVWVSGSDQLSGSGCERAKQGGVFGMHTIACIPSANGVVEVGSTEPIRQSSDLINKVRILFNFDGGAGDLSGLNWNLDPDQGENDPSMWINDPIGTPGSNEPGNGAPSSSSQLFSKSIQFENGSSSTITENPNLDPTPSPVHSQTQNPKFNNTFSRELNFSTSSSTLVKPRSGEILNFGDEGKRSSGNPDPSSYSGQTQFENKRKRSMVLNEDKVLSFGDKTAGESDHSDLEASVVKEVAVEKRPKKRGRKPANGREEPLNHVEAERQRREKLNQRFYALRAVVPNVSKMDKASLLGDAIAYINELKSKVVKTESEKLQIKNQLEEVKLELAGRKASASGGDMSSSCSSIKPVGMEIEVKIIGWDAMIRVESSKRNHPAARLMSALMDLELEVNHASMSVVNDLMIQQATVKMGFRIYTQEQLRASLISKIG
myc-MYC2, Q39204, sequence (Q39204 whole entry): as above
His-AtUBC8, P35131, sequence (P35131 whole entry): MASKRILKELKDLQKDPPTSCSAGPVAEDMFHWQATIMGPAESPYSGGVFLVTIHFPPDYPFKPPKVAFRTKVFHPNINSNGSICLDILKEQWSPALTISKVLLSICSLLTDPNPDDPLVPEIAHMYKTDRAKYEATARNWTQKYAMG

B1: HA-PUB10 (protein)
chain: MAGGAITPDSLIGLIAEINEIPGNFGLFKKDCSDLARRVGLLTHLIEEIRDSSPPSESDASSSLNSHECDWWSDLVVGLQAAKRLLSSATSFQARESSDGAAKRISFQFQCVTWKLEKALGDLTYDRYDISDEVREQVELARLQLRRAMQRYGSLNSKKFSSGLSEPMEKDASSNRKVIEKLESIPETVHSLSDEKKFESPPPWKSSSVSLAFFLSKDGDDERLEKAVTENSDDSQKSDNLTIPEDFLCPISLELMKDPAIVSTGQTYERSFIQRWIDCGNLSCPKTQQKLENFTLTPNYVLRSLISQWCTKHNIEQPGGYMNGRTKNSDGSFRDLSGDMSAIRALVCKLSSQSIEDRRTAVSEIRSLSKRSTDNRILIAEAGAIPVLVKLLTSDGDTETQENAVTCILNLSIYEHNKELIMLAGAVTSIVLVLRAGSMEARENAAATLFSLSLADENKIIIGASGAIMALVDLLQYGSVRGKKDAATALFNLCIYQGNKGRAVRAGIVKPLVKMLTDSSSERMADEALTILSVLASNQVAKTAILRANAIPPLIDCLQKDQPRNRENAAAILLCLCKRDTEKLISIGRLGAVVPLMELSRDGTERAKRKANSLLELLRKSSRKLGSL
myc-MYC2 protein level in double transgenic Arabidopsis seedlings (Western blot) (myc-MYC2, Q39204): induced expression of HA-PUB10 clearly resulted in a decrease in myc-MYC2 level

B2: MBP-PUB10-6myc (protein)
chain: MAGGAITPDSLIGLIAEINEIPGNFGLFKKDCSDLARRVGLLTHLIEEIRDSSPPSESDASSSLNSHECDWWSDLVVGLQAAKRLLSSATSFQARESSDGAAKRISFQFQCVTWKLEKALGDLTYDRYDISDEVREQVELARLQLRRAMQRYGSLNSKKFSSGLSEPMEKDASSNRKVIEKLESIPETVHSLSDEKKFESPPPWKSSSVSLAFFLSKDGDDERLEKAVTENSDDSQKSDNLTIPEDFLCPISLELMKDPAIVSTGQTYERSFIQRWIDCGNLSCPKTQQKLENFTLTPNYVLRSLISQWCTKHNIEQPGGYMNGRTKNSDGSFRDLSGDMSAIRALVCKLSSQSIEDRRTAVSEIRSLSKRSTDNRILIAEAGAIPVLVKLLTSDGDTETQENAVTCILNLSIYEHNKELIMLAGAVTSIVLVLRAGSMEARENAAATLFSLSLADENKIIIGASGAIMALVDLLQYGSVRGKKDAATALFNLCIYQGNKGRAVRAGIVKPLVKMLTDSSSERMADEALTILSVLASNQVAKTAILRANAIPPLIDCLQKDQPRNRENAAAILLCLCKRDTEKLISIGRLGAVVPLMELSRDGTERAKRKANSLLELLRKSSRKLGSL
in vitro auto-ubiquitination of PUB10 with the UBC as E2 (His-AtUBC31): Each of these 4 UBCs was capable of supporting auto-ubiquitination of PUB10 and PUB11 in vitro although with varying degrees of activity
in vitro auto-ubiquitination of PUB10 with the UBC as E2 (His-AtUBC8, P35131): Each of these 4 UBCs was capable of supporting auto-ubiquitination of PUB10 and PUB11 in vitro although with varying degrees of activity ... The highest activity was obtained when UBC8 served as the ubiquitin conjugating enzyme
in vitro auto-ubiquitination of PUB10 with the UBC as E2 (His-AtUBC2, P42745): Each of these 4 UBCs was capable of supporting auto-ubiquitination of PUB10 and PUB11 in vitro although with varying degrees of activity
in vitro auto-ubiquitination of PUB10 with the UBC as E2 (His-AtUBC36, Q9FZ48): Each of these 4 UBCs was capable of supporting auto-ubiquitination of PUB10 and PUB11 in vitro although with varying degrees of activity
in vitro ubiquitination of MYC2 (E1, AtUBC8 as E2, His-ubiquitin; Western blot) (GST-MYC2-HA, Q39204): MYC2 was indeed poly-ubiquitinated by PUB10 in vitro

B3: MBP-PUB10 (C249A)-6myc (protein)
chain: MAGGAITPDSLIGLIAEINEIPGNFGLFKKDCSDLARRVGLLTHLIEEIRDSSPPSESDASSSLNSHECDWWSDLVVGLQAAKRLLSSATSFQARESSDGAAKRISFQFQCVTWKLEKALGDLTYDRYDISDEVREQVELARLQLRRAMQRYGSLNSKKFSSGLSEPMEKDASSNRKVIEKLESIPETVHSLSDEKKFESPPPWKSSSVSLAFFLSKDGDDERLEKAVTENSDDSQKSDNLTIPEDFLAPISLELMKDPAIVSTGQTYERSFIQRWIDCGNLSCPKTQQKLENFTLTPNYVLRSLISQWCTKHNIEQPGGYMNGRTKNSDGSFRDLSGDMSAIRALVCKLSSQSIEDRRTAVSEIRSLSKRSTDNRILIAEAGAIPVLVKLLTSDGDTETQENAVTCILNLSIYEHNKELIMLAGAVTSIVLVLRAGSMEARENAAATLFSLSLADENKIIIGASGAIMALVDLLQYGSVRGKKDAATALFNLCIYQGNKGRAVRAGIVKPLVKMLTDSSSERMADEALTILSVLASNQVAKTAILRANAIPPLIDCLQKDQPRNRENAAAILLCLCKRDTEKLISIGRLGAVVPLMELSRDGTERAKRKANSLLELLRKSSRKLGSL
in vitro ubiquitination of MYC2 (E1, AtUBC8 as E2, His-ubiquitin; Western blot) (GST-MYC2-HA, Q39204): The ubiquitination activity was greatly reduced when cysteine 249 was mutated to alanine 249

B4: HA-PUB10 (C249A) (protein)
chain: MAGGAITPDSLIGLIAEINEIPGNFGLFKKDCSDLARRVGLLTHLIEEIRDSSPPSESDASSSLNSHECDWWSDLVVGLQAAKRLLSSATSFQARESSDGAAKRISFQFQCVTWKLEKALGDLTYDRYDISDEVREQVELARLQLRRAMQRYGSLNSKKFSSGLSEPMEKDASSNRKVIEKLESIPETVHSLSDEKKFESPPPWKSSSVSLAFFLSKDGDDERLEKAVTENSDDSQKSDNLTIPEDFLAPISLELMKDPAIVSTGQTYERSFIQRWIDCGNLSCPKTQQKLENFTLTPNYVLRSLISQWCTKHNIEQPGGYMNGRTKNSDGSFRDLSGDMSAIRALVCKLSSQSIEDRRTAVSEIRSLSKRSTDNRILIAEAGAIPVLVKLLTSDGDTETQENAVTCILNLSIYEHNKELIMLAGAVTSIVLVLRAGSMEARENAAATLFSLSLADENKIIIGASGAIMALVDLLQYGSVRGKKDAATALFNLCIYQGNKGRAVRAGIVKPLVKMLTDSSSERMADEALTILSVLASNQVAKTAILRANAIPPLIDCLQKDQPRNRENAAAILLCLCKRDTEKLISIGRLGAVVPLMELSRDGTERAKRKANSLLELLRKSSRKLGSL
myc-MYC2 protein level in double transgenic Arabidopsis seedlings (Western blot) (myc-MYC2, Q39204): induced expression of PUB10 (C249A) mutant protein resulted in an increase of MYC2 level

B5: MBP-PUB11-myc (protein)
chain: MAGGIVSPASLLDLIADIVEIPLNTGMFKKDCADLTRRVCLLTHLLEEIRDSTPIDSAASSSSENDWWSDLVVGLQAAKRLLSTARFQARDSSDGAAKRISFQFQCVTWKLEKALSNLPYDLYDISDEVGEQVELARSQLRRAMQRYGSLNSNKFSSALSEPMERDGFSNVIKIKAEEKLESVSETLHFGEEEEKQSSPPLRRSSSISLAYYLSKDADTDRLDKMVNKNTDESKKSDKLTIPVDFLCPVSLELMKDPVIVATGQTYERAYIQRWIDCGNLTCPKTQQKLENFTLTPNYVLRSLISRWCAEHNIEQPAGYINGRTKNSGDMSVIRALVQRLSSRSTEDRRNAVSEIRSLSKRSTDNRILIAEAGAIPVLVNLLTSEDVATQENAITCVLNLSIYENNKELIMFAGAVTSIVQVLRAGTMEARENAAATLFSLSLADENKIIIGGSGAIPALVDLLENGTPRGKKDAATALFNLCIYHGNKGRAVRAGIVTALVKMLSDSTRHRMVDEALTILSVLANNQDAKSAIVKANTLPALIGILQTDQTRNRENAAAILLSLCKRDTEKLITIGRLGAVVPLMDLSKNGTERGKRKAISLLELLRKACQ
in vitro auto-ubiquitination of PUB11 with the UBC as E2 (His-AtUBC31): Each of these 4 UBCs was capable of supporting auto-ubiquitination of PUB10 and PUB11 in vitro although with varying degrees of activity
in vitro auto-ubiquitination of PUB11 with the UBC as E2 (His-AtUBC8, P35131): Each of these 4 UBCs was capable of supporting auto-ubiquitination of PUB10 and PUB11 in vitro although with varying degrees of activity ... The highest activity was obtained when UBC8 served as the ubiquitin conjugating enzyme
in vitro auto-ubiquitination of PUB11 with the UBC as E2 (His-AtUBC2, P42745): Each of these 4 UBCs was capable of supporting auto-ubiquitination of PUB10 and PUB11 in vitro although with varying degrees of activity
in vitro auto-ubiquitination of PUB11 with the UBC as E2 (His-AtUBC36, Q9FZ48): Each of these 4 UBCs was capable of supporting auto-ubiquitination of PUB10 and PUB11 in vitro although with varying degrees of activity
in vitro ubiquitination of MYC2 (E1, E2, Ub; Western blot) (GST-MYC2-HA, Q39204): MYC2 is a substrate of PUB11 E3 ligase
